Measurements taken from patent publication US20200399314A1 (MEDIKINE, published 2020).
Bridge positions count the residues as written; N and C are the ends. Ends that are not written are not given here.

T1: human IL-2Rα subunit (human, UniProt P01589 22-213, limits assumed)
T1 construct: also called CD25
T1 sequence (looked up): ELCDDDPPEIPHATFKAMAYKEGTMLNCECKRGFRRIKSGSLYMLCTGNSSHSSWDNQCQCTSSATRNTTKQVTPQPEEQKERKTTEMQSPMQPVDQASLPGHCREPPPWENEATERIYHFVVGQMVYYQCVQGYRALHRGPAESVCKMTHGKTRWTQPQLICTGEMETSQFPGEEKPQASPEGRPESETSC


Target: T1, human IL-2Rα subunit

| Binder | IC50 |
| --- | --- |
| QVCCTSRGCRVCAPV [SEQ ID NO 263] | < 100 µM |
| TTQSCTLRYCWLLQ (disulfide 5-10 (inferred)) [SEQ ID NO 275] | < 100 µM |
| CVVCSALGCRACVPR [SEQ ID NO 269] | < 100 µM |
| RRFCLRSEPTACWYV [SEQ ID NO 68] | < 100 µM |
| IRFCLRSEPTACWIV [SEQ ID NO 243] | < 100 µM |
| SRCSFDVTKQECVF (disulfide 3-12 (inferred)) [SEQ ID NO 288] | < 100 µM |
| CKLTCTSSTCSCVF [SEQ ID NO 285] | < 100 µM |
| WVICSALGCRSM [SEQ ID NO 30] | < 100 µM |
| WVICSAMGCRSI [SEQ ID NO 32] | < 100 µM |
| WVICSALGCRSI [SEQ ID NO 33] | < 100 µM |
| WVICSALGCRSL [SEQ ID NO 29] | < 100 µM |
| WVICSAFGCRSM [SEQ ID NO 34] | < 100 µM |
| YVMCSAFGCKSI [SEQ ID NO 23] | < 100 µM |
| VCCHQTFGCYRCKQ [SEQ ID NO 268] | < 100 µM |
| VTQCFDGPGSFRCCYQ [SEQ ID NO 297] | < 100 µM |
| CILNDTIQGWVCIY [SEQ ID NO 259] | < 100 µM |
| LECQPYRGPLYYCQD [SEQ ID NO 289] | < 100 µM |
| AVCCDGNSCRRC [SEQ ID NO 252] | < 100 µM |
| CVACSSDGCSPIIC [SEQ ID NO 292] | < 100 µM |
| TCRLKRSGPNSWECI [SEQ ID NO 249] | < 100 µM |
| FVHCTLLGCWSG [SEQ ID NO 24] | < 100 µM |
| WVICSAVGCRPF (disulfide 4-9 (inferred)) [SEQ ID NO 31] | < 100 µM |
| WVICSALGCRPF [SEQ ID NO 35] | < 100 µM |
| CMLKCTNAICECIF [SEQ ID NO 286] | < 100 µM |

| Binder | IC50 |
| --- | --- |
| WVACNRVTGSCRPI [SEQ ID NO 279] | < 100 µM |
| STWCCLHPGVGECQAV [SEQ ID NO 296] | < 100 µM |
| TIKCGSSGWCWVEAG [SEQ ID NO 301] | < 100 µM |
| IRCRYEKQSGICLF [SEQ ID NO 244] | < 100 µM |
| RVCCSMVGCRSCNL [SEQ ID NO 264] | < 100 µM |
| GGCSLVWADSWVCIF [SEQ ID NO 245] | < 100 µM |
| RQCNCLSPGELVNCQQ [SEQ ID NO 298] | < 100 µM |
| KGCTLQNPGSGWVCLF [SEQ ID NO 248] | < 100 µM |
| AVSCNSWRCIPW [SEQ ID NO 251] | < 100 µM |
| LSVCSCPPGQLYCMVE (disulfide (positions not given here); also: disulfide between two of the three Cys, which not given here) [SEQ ID NO 295] | < 100 µM |
| MACCTPRGCRPC [SEQ ID NO 283] | < 100 µM |
| CRVWCNQAECMCIF [SEQ ID NO 287] | < 100 µM |
| WCIGQPLFRQGSCK [SEQ ID NO 250] | < 100 µM |
| RCLDLGGSVGLVCF [SEQ ID NO 254] | < 100 µM |
| IRCRLDPPGSYKTCVF (disulfide 3-14 (inferred)) [SEQ ID NO 273] | < 100 µM |
| MVSCTDLGCVVVGGG [SEQ ID NO 299] | < 100 µM |
| CLVFDQYGNYKRRC [SEQ ID NO 261] | < 100 µM |
| RYCSPLIPGSALGCPR [SEQ ID NO 272] | < 100 µM |
| VVHCLQSGCYSVGSG [SEQ ID NO 300] | < 100 µM |
| CRMMQGTYGWTCLF (disulfide 1-12 (inferred)) [SEQ ID NO 258] | < 100 µM |
| RHACKTWYRMCIVS [SEQ ID NO 277] | < 100 µM |
| CVLREGAEGWECVWR [SEQ ID NO 257] | < 100 µM |
| MVSCTDLGCVVVGGG [SEQ ID NO 302] | < 100 µM |
| CTLYRSAPGVWLCIF [SEQ ID NO 260] | < 100 µM |

| Binder | IC50 |
| --- | --- |
| FVHCSLMGCWCG [SEQ ID NO 253] | < 100 µM |
| LTCLIFKPGTHRHCPV [SEQ ID NO 271] | < 100 µM |
| RVCCTSDGCRGCRQ [SEQ ID NO 266] | < 100 µM |
| VRCRQNEPGGAYWCSS [SEQ ID NO 256] | < 100 µM |
| WWISCLRDLRCLEYF [SEQ ID NO 276] | < 100 µM |
| WVACNRLSGCCRPI [SEQ ID NO 281] | < 100 µM |
| AVSCSRLTGRCHSL [SEQ ID NO 278] | < 100 µM |
| LDLTYDELLACT [SEQ ID NO 2] | < 100 µM |
| RSVCCSSYGCRACFG [SEQ ID NO 284] | < 100 µM |
| RVCCTFAGCRVCHK [SEQ ID NO 265] | < 100 µM |
| RGVICNHAGCRIWYG [SEQ ID NO 274] | < 100 µM |
| HEICCGPPGCHSCSVT [SEQ ID NO 294] | < 100 µM |
| VWDCFVRGWEAGVAAVGE [SEQ ID NO 270] | < 100 µM |
| TVCCTVQGCWPCSR [SEQ ID NO 267] | < 100 µM |
| VCFNFRGTVGRHCW [SEQ ID NO 255] | < 100 µM |
| SHGVCCTQSSCRSCR [SEQ ID NO 280] | < 100 µM |
| SICCTPQLCHSCDG [SEQ ID NO 290] | < 100 µM |
| AICSEDEGGELCCWH [SEQ ID NO 293] | < 100 µM |
| GCSLMWQDGWWVCI [SEQ ID NO 246] | < 100 µM |
| EWECRFLPGRRGCSLF [SEQ ID NO 247] | < 100 µM |
| HTVCCQDWGCRSCSG [SEQ ID NO 282] | < 100 µM |
| TTCCTSEGCHKCITL [SEQ ID NO 291] | < 100 µM |
| IVCCNMFGCHTCRN [SEQ ID NO 262] | < 100 µM |
